Data reported in patent US20210246218A1 (LYVGEN BIOPHARMA SUZHOU, published 2021).

Key:
Assay in all cases: flow cytometry on CHO cells over-expressing the target
human CD19 on CHO cells = molecular target: T1, human CD19 on CHO cells (human, UniProt P15391 20-556)
T1 construct: whole, on cells
T1 sequence (looked up): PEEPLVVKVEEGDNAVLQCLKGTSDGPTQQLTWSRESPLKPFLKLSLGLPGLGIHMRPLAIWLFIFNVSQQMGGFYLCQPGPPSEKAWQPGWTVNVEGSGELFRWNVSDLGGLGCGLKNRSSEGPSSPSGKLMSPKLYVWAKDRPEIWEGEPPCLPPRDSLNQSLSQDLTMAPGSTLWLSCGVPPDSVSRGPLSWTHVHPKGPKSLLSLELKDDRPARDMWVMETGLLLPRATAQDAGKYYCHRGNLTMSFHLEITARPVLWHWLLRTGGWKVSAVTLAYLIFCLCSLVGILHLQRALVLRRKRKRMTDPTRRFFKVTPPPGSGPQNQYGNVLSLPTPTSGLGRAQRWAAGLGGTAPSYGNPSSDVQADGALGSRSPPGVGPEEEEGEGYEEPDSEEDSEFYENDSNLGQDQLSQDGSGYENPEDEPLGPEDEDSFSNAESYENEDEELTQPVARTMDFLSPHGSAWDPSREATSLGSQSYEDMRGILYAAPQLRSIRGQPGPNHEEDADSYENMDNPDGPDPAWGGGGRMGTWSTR
Method: (§1) The cells were resuspended in ice cold assay buffer at 2*10\hat{ }6/mL and transferred to 96-well V-bottom plate with 100 μL/well. […] The plate was incubated in the dark for 2 hours at 4° C. The cells were washed 3 times by centrifugation at 1000 g for 3 min and resuspended in 100 μL ice cold assay buffer containing goat F(ab′)₂ anti-human IgG-Fc (PE) or PE goat anti-mouse IgG antibody. The plate was incubated in the dark for another 1 hour at 4° C. The cells were washed 2 times by centrifugation at 1000 g for 3 min and resuspended in ice cold assay buffer containing 2% PFA and analyzed on the flow cytometer immediately.

human PD-L1 on CHO cells = molecular target: T2, human PD-L1 on CHO cells (human, UniProt Q9NZQ7 19-290)
T2 construct: whole, on cells
T2 sequence (Q9NZQ7 19-290): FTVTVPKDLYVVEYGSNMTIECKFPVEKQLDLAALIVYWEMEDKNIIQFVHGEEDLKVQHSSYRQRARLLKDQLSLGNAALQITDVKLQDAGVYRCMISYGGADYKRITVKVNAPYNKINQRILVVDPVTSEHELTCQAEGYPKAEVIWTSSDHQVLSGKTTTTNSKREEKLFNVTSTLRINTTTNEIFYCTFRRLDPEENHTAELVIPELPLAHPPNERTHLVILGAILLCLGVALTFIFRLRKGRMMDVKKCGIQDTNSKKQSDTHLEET
Method: as §1

human CD160 on CHO cells = molecular target: T3, human CD160 on CHO cells (human, UniProt O95971 25-159)
T3 construct: whole, on cells
T3 sequence (looked up): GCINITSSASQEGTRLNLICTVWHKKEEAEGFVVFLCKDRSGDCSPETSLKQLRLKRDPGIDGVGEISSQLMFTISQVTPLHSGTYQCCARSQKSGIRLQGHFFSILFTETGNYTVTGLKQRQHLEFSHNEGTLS
Method: as §1

human B7-H3 on CHO cells = molecular target: T4, human B7-H3 on CHO cells (human, UniProt Q5ZPR3 29-534)
T4 construct: whole, on cells
T4 sequence (looked up): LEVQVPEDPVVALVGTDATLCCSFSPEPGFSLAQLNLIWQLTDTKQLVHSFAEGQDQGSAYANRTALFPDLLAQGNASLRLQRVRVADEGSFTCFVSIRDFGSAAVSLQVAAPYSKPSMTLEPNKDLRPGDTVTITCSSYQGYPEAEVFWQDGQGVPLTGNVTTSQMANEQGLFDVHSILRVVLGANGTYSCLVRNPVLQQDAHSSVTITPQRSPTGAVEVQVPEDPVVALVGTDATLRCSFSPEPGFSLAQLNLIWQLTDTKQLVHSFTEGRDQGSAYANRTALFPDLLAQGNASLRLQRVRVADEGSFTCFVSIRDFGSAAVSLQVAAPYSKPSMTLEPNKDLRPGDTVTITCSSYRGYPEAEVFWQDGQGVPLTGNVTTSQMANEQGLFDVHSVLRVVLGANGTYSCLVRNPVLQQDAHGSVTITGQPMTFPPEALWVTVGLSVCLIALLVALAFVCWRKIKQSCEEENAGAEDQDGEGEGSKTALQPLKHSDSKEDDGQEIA
Method: as §1

human CD40 on CHO cells = molecular target: T5, human CD40 on CHO cells (human, UniProt P25942 21-277)
T5 construct: whole, on cells
T5 sequence (P25942 21-277): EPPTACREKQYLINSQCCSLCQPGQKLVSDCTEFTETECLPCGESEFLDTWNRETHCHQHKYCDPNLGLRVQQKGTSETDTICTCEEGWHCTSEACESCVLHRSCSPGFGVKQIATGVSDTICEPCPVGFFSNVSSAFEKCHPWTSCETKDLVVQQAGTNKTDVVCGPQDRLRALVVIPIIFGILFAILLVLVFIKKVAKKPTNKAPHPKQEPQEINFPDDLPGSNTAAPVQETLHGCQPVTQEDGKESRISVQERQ
Method: as §1

human B7-H4 on CHO cells = molecular target: T6, human B7-H4 on CHO cells (human, UniProt Q7Z7D3 25-282)
T6 construct: whole, on cells
T6 sequence (looked up): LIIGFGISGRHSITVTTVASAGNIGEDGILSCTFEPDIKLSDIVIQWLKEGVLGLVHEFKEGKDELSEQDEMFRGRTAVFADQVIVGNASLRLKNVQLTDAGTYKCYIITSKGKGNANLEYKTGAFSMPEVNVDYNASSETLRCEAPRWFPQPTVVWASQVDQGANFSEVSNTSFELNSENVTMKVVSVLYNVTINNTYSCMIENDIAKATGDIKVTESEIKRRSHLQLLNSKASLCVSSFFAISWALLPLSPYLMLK
Method: as §1

human CD47 on CHO cells = molecular target: T7, human CD47 on CHO cells (human, UniProt Q08722 19-323)
T7 construct: whole, on cells
Method: as §1

human CD27 on CHO cells = molecular target: T8, human CD27 on CHO cells (human, UniProt P26842 20-260)
T8 construct: whole, on cells
T8 sequence (P26842 20-260): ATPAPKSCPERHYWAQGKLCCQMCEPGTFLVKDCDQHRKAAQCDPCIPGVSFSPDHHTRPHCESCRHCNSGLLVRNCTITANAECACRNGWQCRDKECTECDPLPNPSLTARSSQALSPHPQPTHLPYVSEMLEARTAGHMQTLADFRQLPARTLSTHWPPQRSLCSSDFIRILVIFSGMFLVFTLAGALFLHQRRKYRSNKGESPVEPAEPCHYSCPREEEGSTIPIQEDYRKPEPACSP
Method: as §1

[1] = molecular target: T9, human CD200R1 on CHO cells (human, UniProt Q8TD46 25-348)
T9 construct: whole, on cells
T9 sequence (looked up): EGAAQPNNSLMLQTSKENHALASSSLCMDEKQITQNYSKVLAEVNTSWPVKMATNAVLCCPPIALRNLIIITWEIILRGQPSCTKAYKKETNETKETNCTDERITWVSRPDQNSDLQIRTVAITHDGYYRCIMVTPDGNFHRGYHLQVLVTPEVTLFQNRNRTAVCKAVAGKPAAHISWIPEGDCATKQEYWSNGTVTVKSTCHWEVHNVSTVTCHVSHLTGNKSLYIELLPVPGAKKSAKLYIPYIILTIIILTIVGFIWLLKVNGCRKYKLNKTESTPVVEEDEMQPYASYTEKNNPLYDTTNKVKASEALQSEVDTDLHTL
Method: as §1

Measured: binding result

B1: Clone 3712-IgG1v (IgG1v/kappa) (antibody)
heavy: QVQLVQSGAEVKKPGASVKVSCKASGYTFAGFEMHWVRQAPGQGLEWMGAIDPKTGGTDYNQKFKDRVTMTRDTSISTAYMELSRLRSDDTAVYYCARDLGYFDVWGQGTLVTVSSASTKGPSVFPLAPSSKSTSGGTAALGCLVKDYFPEPVTVSWNSGALTSGVHTFPAVLQSSGLYSLSSVVTVPSSSLGTQTYICNVNHKPSNTKVDKKVEPKSCDKTHTCPPCPAPELLGPSVFLFPPKPKDTLMISRTPEVTCVVVDVEHEDPEVKFNWYVDGVEVHNAKTKPREEQYNSTYRVVSVLTVLHQDWLNGKEYKCKVSNKALPAPIEKTISKAKGQPREPQVYTLPPSREEMTKNQVSLTCLVKGFYPSDIAVEWESNGQPENNYKTTPPVLDSDGSFFLYSKLTVDKSRWQQGNVFSCSVMHEALHNHYTQKSLSLSPGK
light: DIQMTQSPSSLSASVGDRVTITCRASQDIRSNLNWYQQKPGGAVKLLIYYTSRLHSGVPSRFSGSGSGTDYTLTISSLQPEDFATYFCQQSEKLPRTFGGGTKVEIRRTVAAPSVFIFPPSDEQLKSGTASVVCLLNNFYPREAKVQWKVDNALQSGNSQESVTEQDSKDSTYSLSSTLTLSKADYEKHKVYACEVTHQGLSSPVTKSFNRGEC
notes: copies: 2 + 2
no binding: human CD19 on CHO cells | human PD-L1 on CHO cells | human CD160 on CHO cells | human B7-H3 on CHO cells | human CD40 on CHO cells | human B7-H4 on CHO cells | human CD47 on CHO cells | human CD27 on CHO cells | [1]
